PMC4807222 (Structure (London, England : 1993), 2015)

B1: c-Myc_(1–88) (domain or fragment, human, UniProt P01106-1 1-88, looked up)
chain: MPLNVSFTNRNYDLDYDSVQPYFYCDEEENFYQQQQQSELQPPAPSEDIWKKFELLPTPPLSPSRRSGLCSPSYVAVTPFSLRGDNDG
B2: pSer62-c-Myc_(1–88) (domain or fragment, human, UniProt P01106-1 1-88, looked up)
chain: B1 chain
modifications: phosphoserine at 62
B3: Pin1_(PPIase) (50–163) (domain or fragment, human, UniProt Q13526 50-163, looked up)
chain: GEPARVRCSHLLVKHSQSRRPSSWRQEKITRTKEEALELINGYIQKIKSGEEDFESLASQFSDCSSAKARGDLGAFSRGQMQKPFEDASFALRTGEMSGPVFTDSGIHIILRTE

How the values were obtained:
full-length Pin1 (1–163) [1] = target: T1, full-length Pin1 (1–163) (human, UniProt Q13526 1-163); assay: SPR
full-length Pin1 (1–163) [2] = target: T1, full-length Pin1 (1–163); assay: ITC
c-Myc_(1–88) = target: B1; assay: SPR

T1 sequence (Q13526 whole entry): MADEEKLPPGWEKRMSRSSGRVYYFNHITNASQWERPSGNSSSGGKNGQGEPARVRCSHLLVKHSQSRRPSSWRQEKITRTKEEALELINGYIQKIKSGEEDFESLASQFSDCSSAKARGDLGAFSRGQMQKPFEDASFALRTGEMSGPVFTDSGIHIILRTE

Binder	fold weaker affinity than intact Pin1 (c-Myc_(1–88)) [fold]	further results
B1	–	Kd (full-length Pin1 (1–163) [1]): 4 µM
B2	–	Kd (full-length Pin1 (1–163) [2]): 10 to 100 µM
B3	> 10	–
KLPPGWEKRMSRSSGRVYYFNHITNASQWERPSG (domain or fragment, human, UniProt Q13526 6-39, looked up) [Pin1WW (6–39)]	> 10	–
